This is an account of results in patent US20250325630A1, “HOMODIMER FUSION PROTEINS FOR TREATING ATOPIC DERMATITIS” (Intervet Inc., priority 2021, published 2025).

The target of assay [1] is T1, canine IL-13 (canine, UniProt Q9N0W9 19-131, limits assumed, biotin-labeled in the Octet assay (site not stated)).
T1 construct: Biotin-labeled and loaded on SA biosensors for the kinetics; unlabeled in the DH82 cell assay; also called cIL-13; canine Interleukin-13
T1 sequence (looked up): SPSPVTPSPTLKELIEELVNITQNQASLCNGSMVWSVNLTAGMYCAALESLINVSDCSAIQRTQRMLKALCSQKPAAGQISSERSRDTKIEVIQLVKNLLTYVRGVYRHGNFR
Kind of assay: BLI (Octet HTX), biotin-cIL-13 on SA biosensors, fusion protein in solution, 1:1 fit. On the procedure:
(§1) The binding constants for the cFc fusion proteins provided in Tables 3 and 4 below, were determined using OCTET® HTX. All kinetics measurements were performed by OCTET® HTX using SA® biosensors and DATA ACQUISITION® 12.0 software. 10 μg/mL of biotin-labeled antigen, either canine IL-4 (cIL-4) or canine IL-13 (cIL-13) were loaded onto the SAR biosensors for 120 seconds. Next, the biosensors were placed into 1×pH 7.0 TBS/Casein buffer for 60 seconds for the blocking phase. For the association phase, antigen loaded biosensors were placed into 2-fold serial dilutions from 1 μM down to 15.6 nM of the wild-type, the bispecific, or the FcRn-mutant receptor Fc-fusions that recognized the cIL-4 or cIL-13 antigen in 1×pH 7.0 TBS/Casein buffer for 30 seconds. The last well was buffer alone and that sensor was used for reference sensor subtraction. Finally, the biosensors were placed into 1×pH 7.0 TBS/Casein buffer for 120 seconds for the dissociation phase. The results were then analyzed using Data Analysis 12.0 software and the curves were fitted using a 1:1 binding model.

Assay [2] deals with T1, canine IL-13. Kind of assay: cell-based or functional assay.
The target in assay [3] is T1, canine IL-13. Description: cell-based or functional assay. This is another data set of the same source.
Assay [4] addresses T1, canine IL-13. Kind of assay: BLI (Octet); summary table, rounded from Table 4.
The target in another assay is T2, canine IL-4 (cIL-4) (Canis lupus familiaris, UniProt O77762).
T2 sequence (O77762 25-132): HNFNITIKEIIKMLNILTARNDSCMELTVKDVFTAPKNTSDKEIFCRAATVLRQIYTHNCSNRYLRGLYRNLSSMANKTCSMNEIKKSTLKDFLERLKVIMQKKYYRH
Description: Binding kinetics of cFc fusion proteins to canine IL-4 (OCTET HTX). The method, then:
as §1

Another assay addresses T3, canine IL-13 (cIL-13) (Canis lupus familiaris, UniProt Q9N0W9).
T3 sequence (Q9N0W9 19-131): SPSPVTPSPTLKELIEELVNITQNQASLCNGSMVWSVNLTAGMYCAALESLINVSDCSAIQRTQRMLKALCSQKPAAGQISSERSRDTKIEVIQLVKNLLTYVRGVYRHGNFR
Description: Binding kinetics of cFc fusion proteins to canine IL-13 (OCTET HTX). The following applies: Table 4, cIL-13; for ka: association rate constant; for kdis: dissociation rate constant. On the procedure:
as §1

In assay [5] the test system is cIL-13 mediated STAT6 phosphorylation. Kind of assay: Inhibition of cIL-13 mediated STAT6 phosphorylation in DH82 cells (AlphaLISA p-STAT6). The class given is cell-based, canine. The note with it: for concentration inhibiting 50% of the cIL-13 mediated STAT6 phosphorylation (in words): DH82 cells. On the procedure:
The ability of the cFc fusion proteins to block the signaling mediated by IL-4 and IL-13, as measured by inhibition of STAT-6 phosphorylation in DH82 cells, were determined as follows:
• 1. Actively growing DH82 cells: Merck Animal Health Lot: 628-011, 24Oct14 • 2. HBSS, 1×: Corning, Catalog 21-022-CM • 3. AlphaLISA p-STAT6 (Tyr641) Assay Kit: Perkin Elmer, Catalog ALSU-PST6-A10K • 4. Recombinant canine IL-4: R&D Systems, Catalog: 752-CL/CF • 5a. cFc fusion protein samples for IL-4 studies • (i) cIL4Rα-cFc • (ii) cIL4Rα-IL13Rα1 ZW1-cFc • (iii) cIL4Rα-IL13Rα2 ZW1-cFc • 5b. cFc fusion protein samples for IL-13 studies: • (i) CIL13Rα1-cFc • (ii) cIL13Rα2-cFc • (iii) cIL4R-IL13Rα1 ZW1-cFc • (iv) cIL4R-IL13Rα2 ZW1-cFc • 6. Perkin Elmer® Envision
• 1. Tissue culture plates were seeded with […] DH82 cells per well (40 μL with the density of 2.5×10^5 cells/mL) and incubated at 37° C. for 2 hours. • 2. The cFc fusion proteins were pre-diluted to 2000 nM (500 nM final concentration in the well) and then 3-fold serially diluted in Hank's Balanced Salt Solution (HBSS). The proteins were added by transferring 20 μL/well to the respective locations on the tissue culture plates containing DH82 cells. • 3. (a) Canine IL-4 was diluted to 10 ng/ml in HBSS (2.5 ng/ml in the well) and 20 μL was added to each well of the plates. The plates were incubated for 15 min at 37° C.; or alternatively • (b) Canine IL-13 was diluted to 20 ng/ml in HBSS (5 ng/ml in the well) and 20 μL was added to each well of the plates. The plates were incubated for 15 min at 37° C. • 4. The plates were removed from the incubator and 20 μL of 4× Lysis buffer from the AlphaLISA® p-STAT-6 Assay Kit was added to each well of the plate. The plate was agitated on a plate shaker with 350 rpm for 10 minutes at room temperature. • 5. The Acceptor Mix was prepared from the AlphaLISA® p-STAT6 Assay Kit and 15 μL per well was added to 30 μL of the cell lysate in 96-well ½ Area Plates. The plates were sealed, agitated for 2 minutes at 350 rpm, and then incubated for 1 hour at room temperature. • 6. The Donor Mix was prepared from the AlphaLISA® p-STAT6 Assay kit under subdued laboratory lighting and 15 μL per well was added to each plate. The plates were sealed, covered with foil, agitated for 2 minutes at 350 rpm, and then incubated for 1 hour at room temperature. • 7. The plates were read using the AlphaScreen settings on the Perkin Elmer® En Vison.

B1: cIL-13Rα1-cIgGB-Fc (Fc fusion)
chain: GGVAAPTETQPPVTNLSVSVENLCTVIWTWDPPEGASPNCTLRYFSHFDNKQDKKIAPETHRSKEVPLNERICLQVGSQCSTNESDNPSILVEKCTPPPEGDPESAVTELQCVWHNLSYMKCTWLPGRNTSPDTNYTLYYWHSSLGKILQCEDIYREGQHIGCSFALTNLKDSSFEQHSVQIVVKDNAGKIRPSFNIVPLTSHVKPDPPHIKRLFFQNGNLYVQWKNPQNFYSRCLSYQVEVNNSQTETNDIFYVEEAKCQNSEFEGNLEGTICFMVPGVLPDTLNTVRIRVRTNKLCYEDDKLWSNWSQAMSIGENTDPTPKRENGRVPRPPDCPKCPAPEMLGGPSVFIFPPKPKDTLLIARTPEVTCVVVDLDPEDPEVQISWFVDGKQMQTAKTQPREEQFNGTYRVVSVLPIGHQDWLKGKQFTCKVNNKALPSPIERTISKARGQAHQPSVYVLPPSREELSKNTVSLTCLIKDFFPPDIDVEWQSNGQQEPESKYRTTPPQLDEDGSYFLYSKLSVDKSRWQRGDTFICAVMHEALHNHYTQESLSHSPGK
notes: Homodimer; also called cIL-13Rα1-cFc; cIL13Rα1-cFc
Turning to B1, in the assay with canine IL-13 [1], binding was put at a Kd of 0.00537 µM, the koff worked out at 0.000312 s⁻¹ and the kon turned out to be 58000 M⁻¹ s⁻¹. The “IL-13 IC50 (inhibition of cIL-13 mediated STAT6 phosphorylation in DH82 cells)” value in the assay with canine IL-13 [2] was 0.0184 µM. In addition, in the assay with canine IL-13 [3], the “IL-13 (IC50), summary table” value is 0.02 µM. Also, the affinity with canine IL-13 [4], expressed as Kd, was 0.005 µM.

B2: cIL4Rα-IL13Rα1_ZW1-cFc: bispecific heterodimer of cIL-4Rα-cIgGB-Fc-ZW-A (SEQ ID NO: 18) and cIL-13Rα1-cIgGB-Fc-ZW-B (SEQ ID NO: 19) (protein)
chain 1: VKVLHEPSCFSDYISTSVCQWKMDHPTNCSAELRLSYQLDFMGSENHTCVPENREDSVCVCSMPIDDAVEADVYQLDLWAGQQLLWSGSFQPSKHVKPRTPGNLTVHPNISHTWLLMWTNPYPTENHLHSELTYMVNVSNDNDPEDFKVYNVTYMGPTLRLAASTLKSGASYSARVRAWAQTYNSTWSDWSPSTTWLNYYEPWEQHLPPKRENGRVPRPPDCPKCPAPEMLGGPSVFIFPPKPKDTLLIARTPEVTCVVVDLDPEDPEVQISWFVDGKQMQTAKTQPREEQFNGTYRVVSVLPIGHQDWLKGKQFTCKVNNKALPSPIERTISKARGQAHQPSVYVYPPSREELSKNTVSLTCLIKDFFPPDIDVEWQSNGQQEPESKYRTTPPQLDEDGSYALVSKLSVDKSRWQRGDTFICAVMHEALHNHYTQESLSHSPGK
chain 2: GGVAAPTETQPPVTNLSVSVENLCTVIWTWDPPEGASPNCTLRYFSHFDNKQDKKIAPETHRSKEVPLNERICLQVGSQCSTNESDNPSILVEKCTPPPEGDPESAVTELQCVWHNLSYMKCTWLPGRNTSPDTNYTLYYWHSSLGKILQCEDIYREGQHIGCSFALTNLKDSSFEQHSVQIVVKDNAGKIRPSFNIVPLTSHVKPDPPHIKRLFFQNGNLYVQWKNPQNFYSRCLSYQVEVNNSQTETNDIFYVEEAKCQNSEFEGNLEGTICFMVPGVLPDTLNTVRIRVRTNKLCYEDDKLWSNWSQAMSIGENTDPTPKRENGRVPRPPDCPKCPAPEMLGGPSVFIFPPKPKDTLLIARTPEVTCVVVDLDPEDPEVQISWFVDGKQMQTAKTQPREEQFNGTYRVVSVLPIGHQDWLKGKQFTCKVNNKALPSPIERTISKARGQAHQPSVYVLPPSREELSKNTVSLLCLIKDFFPPDIDVEWQSNGQQEPESKYLTWPPQLDEDGSYFLYSKLSVDKSRWQRGDTFICAVMHEALHNHYTQESLSHSPGK
modifications: heterodimer
In the case of B2, the “loss in affinity for cIL-4 (KD times higher) relative to unmodified cIL-4Rα-cFc homodimer” value in the assay with canine IL-4 (cIL-4) is reported as “about 10,000 fold”. In the assay with canine IL-4 (cIL-4) (Table 3, association rate constant, cIL-4, ND = Binding Not Detected), this molecule yielded a ka of 237000 M⁻¹ s⁻¹. In the assay with canine IL-4 (cIL-4) (Table 3, dissociation rate constant, cIL-4, ND = Binding Not Detected), the kdis turned out to be 0.00234 s⁻¹. In the assay with canine IL-13 (cIL-13), this molecule had a ka of 94400 M⁻¹ s⁻¹ and a kdis of 3.91e-05 s⁻¹. Moreover, in assay [5], the “IC50 for cIL-13 mediated STAT6 phosphorylation, fold higher than for cIL-13Rα2-cFc” value is “about 20 fold” and the “concentration inhibiting 50% of the cIL-13 mediated STAT6 phosphorylation (in words)” value is recorded as “well above nanomolar concentrations”.

B3: cIL4Rα-IL13Rα2_ZW1-cFc: bispecific heterodimer of cIL-4Rα-cIgGB-Fc-ZW-A (SEQ ID NO: 18) and cIL-13Rα2-cIgGB-Fc-ZW-B (SEQ ID NO: 20) (protein)
chain 1: VKVLHEPSCFSDYISTSVCQWKMDHPTNCSAELRLSYQLDFMGSENHTCVPENREDSVCVCSMPIDDAVEADVYQLDLWAGQQLLWSGSFQPSKHVKPRTPGNLTVHPNISHTWLLMWTNPYPTENHLHSELTYMVNVSNDNDPEDFKVYNVTYMGPTLRLAASTLKSGASYSARVRAWAQTYNSTWSDWSPSTTWLNYYEPWEQHLPPKRENGRVPRPPDCPKCPAPEMLGGPSVFIFPPKPKDTLLIARTPEVTCVVVDLDPEDPEVQISWFVDGKQMQTAKTQPREEQFNGTYRVVSVLPIGHQDWLKGKQFTCKVNNKALPSPIERTISKARGQAHQPSVYVYPPSREELSKNTVSLTCLIKDFFPPDIDVEWQSNGQQEPESKYRTTPPQLDEDGSYALVSKLSVDKSRWQRGDTFICAVMHEALHNHYTQESLSHSPGK
chain 2: SMLSNAEIKVNPPQDFEIVDPGYLGYLSLQWQPPLFPDNFKECTIEYELKYRNIDSENWKTIITKNLHYKDGFDLNKGIEAKINTLLPAQCTNGSEVRSSWAETTYWTSPQGNRETKIQDMDCVYYNWQYLVCSWKPGMGVHFDTNYQLFYWYEGLDHSAECTDYIKVNGKNMGCRFPYLESSDYKDFYICVNGSSESQPIRPSYFIFQLQNIVKPMPPDYLSLTVKNSEEINLKWNMPKGPIPAKCFIYEIEFTEDGTTWVTTTVENEIQITRTSNESQKLCFLVRSKVNIYCSDDGIWSEWSDEQCWKGDIWKETPKRENGRVPRPPDCPKCPAPEMLGGPSVFIFPPKPKDTLLIARTPEVTCVVVDLDPEDPEVQISWFVDGKQMQTAKTQPREEQFNGTYRVVSVLPIGHQDWLKGKQFTCKVNNKALPSPIERTISKARGQAHQPSVYVLPPSREELSKNTVSLLCLIKDFFPPDIDVEWQSNGQQEPESKYLTWPPQLDEDGSYFLYSKLSVDKSRWQRGDTFICAVMHEALHNHYTQESLSHSPGK
modifications: heterodimer
In the case of B3, the “binding constant (KD) with cIL-4” value with canine IL-4 (cIL-4) (approximate values) is “undetectable”. In the assay with canine IL-13 (cIL-13), this molecule came in with a ka of 32600 M⁻¹ s⁻¹ and a kdis of 0.000135 s⁻¹. Also, in assay [5], the “IC50 for cIL-13 mediated STAT6 phosphorylation, fold higher than for cIL-13Rα2-cFc” value was “about 200 fold” and the “concentration inhibiting 50% of the cIL-13 mediated STAT6 phosphorylation (in words)” value is on record as “well above nanomolar concentrations”.
